For this assay, the target named is human CD64 (FcγRI) (human) (UniProt P12314). Kind of assay: BLI; Octet RED96; biotinylated human CD64, CD32a or CD16a loaded on streptavidin biosensors; serially diluted ARX788 drug substance in HBS-P+ buffer; global fit, Langmuir 1:1 model; for CD32a and CD16a only 3.0 seconds of the dissociation step fitted to avoid avidity effects.

Where “and” joins values, the source holds several entries; their conditions need not be identical. Equal values may be shown once.

human CD64 (FcγRI) (human), sequence (P12314 16-374): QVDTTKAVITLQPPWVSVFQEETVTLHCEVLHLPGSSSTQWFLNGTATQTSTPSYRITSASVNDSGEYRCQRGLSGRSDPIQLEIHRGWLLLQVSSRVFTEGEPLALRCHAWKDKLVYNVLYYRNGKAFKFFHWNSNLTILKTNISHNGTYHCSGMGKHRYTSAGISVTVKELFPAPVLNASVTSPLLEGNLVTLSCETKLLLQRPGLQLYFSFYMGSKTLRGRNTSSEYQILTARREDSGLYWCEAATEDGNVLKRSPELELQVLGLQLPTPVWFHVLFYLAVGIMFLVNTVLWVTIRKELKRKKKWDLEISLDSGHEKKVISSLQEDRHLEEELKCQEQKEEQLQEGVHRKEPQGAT

Turning to ARX788 (antibody), the KD ratio (Sample/RS) is 0.98 and 0.89 and 1.

For the origin of these results see publication PMC10332591.
